Experimental findings from article PMC6355197 are described below.

For this experiment, the target named is afTMEM16 scramblase from Aspergillus fumigatus (Aspergillus fumigatus). The experiment can be described thus: cryo-EM structure; afTMEM16 in MSP1E3 nanodiscs of 3 POPE:1 POPG; three samples: 0.5 mM Ca2+, Ca2+-free (5 mM EDTA), 0.5 mM Ca2+ with 5 mole% C24:0 ceramide; buffer D (150 mM KCl, 50 mM Tris pH 8.0); maps refined in C1 and C2.

Turning to “afTMEM16 scramblase from Aspergillus fumigatus (natural protein)”, the stoichiometry N – broadly, a count of units in the complex or per binding partner – was 2.
